B1: 1789 Fab (Fab, V domains shown)
VH: EVQLVESGGGLVQPGGSLRLSCAASGFNVSYSSIHWVRQAPGKGLEWVASISSSSGYTYYADSVKGRFTISADTSKNTAYLQMNSLRAEDTAVYYCARNYWGWYPFYYFAFDYWGQGTLVTV
VL: DIQMTQSPSSLSASVGDRVTITCRASQSVSSAVAWYQQKPGKAPKLLIYSASSLYSGVPSRFSGSRSGTDFTLTISSLQPEDFATYYCQQGWDYPITFGQGTKVEIKR
B2: 1789 IgG (antibody, V domains shown)
VH: EVQLVESGGGLVQPGGSLRLSCAASGFNVSYSSIHWVRQAPGKGLEWVASISSSSGYTYYADSVKGRFTISADTSKNTAYLQMNSLRAEDTAVYYCARNYWGWYPFYYFAFDYWGQGTLVTVSS
VL: B1 VL

What was measured:
[1] = biological target: T1, N-terminal domain of human NT5E (human, UniProt P21589 27-335); experiment: SPR, His-captured N-terminal domain, single injection, ATP-free buffer
T1 construct: also called N-terminal hNT5E
T1 sequence: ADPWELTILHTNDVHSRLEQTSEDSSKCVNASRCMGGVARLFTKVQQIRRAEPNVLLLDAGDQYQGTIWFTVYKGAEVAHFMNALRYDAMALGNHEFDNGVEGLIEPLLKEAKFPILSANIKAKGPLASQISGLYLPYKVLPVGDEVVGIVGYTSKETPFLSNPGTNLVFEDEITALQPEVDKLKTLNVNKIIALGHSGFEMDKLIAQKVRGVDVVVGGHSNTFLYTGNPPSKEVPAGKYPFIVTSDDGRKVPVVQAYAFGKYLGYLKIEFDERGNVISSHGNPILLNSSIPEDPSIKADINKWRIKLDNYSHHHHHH
Method: (§1) All SPR experiments were performed at 25° C. using MASS-1 (Bruker) instrument. hNT5E, mNT5E and cNT5E were immobilized onto a nitrilotriacetic acid (NTA) sensor chip via His-tag. For kinetic experiments, after ligand immobilization, 2-fold serial dilutions of the Fabs were injected. After double-reference subtraction data were analyzed with BiaEvaluation (GE Healthcare) or Sierra Analyser (Bruker) software. The experiments were carried in buffers in presence and absence of 1 mM ATP to compare the kinetic parameters of the Fabs binding to closed and open form of NT5E.
In the domain binding experiments, full-length, N-terminal, and C-terminal hNT5E were immobilized as described above.

[2] = biological target: T2, Full-length cynomolgus NT5E (recombinant) (cynomolgus, UniProt P21589 27-549 (human entry)); experiment: SPR, His-captured NT5E, no ATP; SPR, No ATP
T2 construct: also called cNT5E; cyno NT5E
T2 chain: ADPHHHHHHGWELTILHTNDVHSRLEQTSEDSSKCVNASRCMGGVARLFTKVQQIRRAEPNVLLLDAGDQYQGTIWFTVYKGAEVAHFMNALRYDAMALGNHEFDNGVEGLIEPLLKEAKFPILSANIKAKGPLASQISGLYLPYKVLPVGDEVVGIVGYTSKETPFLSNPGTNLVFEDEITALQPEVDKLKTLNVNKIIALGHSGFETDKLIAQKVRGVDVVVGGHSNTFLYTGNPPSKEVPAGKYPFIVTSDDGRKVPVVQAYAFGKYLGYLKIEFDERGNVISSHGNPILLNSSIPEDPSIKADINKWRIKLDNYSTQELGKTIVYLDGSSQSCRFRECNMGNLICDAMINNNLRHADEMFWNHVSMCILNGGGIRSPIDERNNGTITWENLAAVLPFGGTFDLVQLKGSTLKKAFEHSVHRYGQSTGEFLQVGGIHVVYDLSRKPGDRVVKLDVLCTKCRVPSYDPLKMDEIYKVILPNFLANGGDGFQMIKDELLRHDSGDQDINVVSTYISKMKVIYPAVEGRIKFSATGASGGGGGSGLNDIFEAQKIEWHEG
Method: as §1

[3] = biological target: T3, Full-length murine NT5E (recombinant) (murine, UniProt Q61503 29-552); experiment: ELISA, biotinylated NT5E on neutravidin plate, 1 mM ATP
T3 construct: also called mNT5E
T3 sequence: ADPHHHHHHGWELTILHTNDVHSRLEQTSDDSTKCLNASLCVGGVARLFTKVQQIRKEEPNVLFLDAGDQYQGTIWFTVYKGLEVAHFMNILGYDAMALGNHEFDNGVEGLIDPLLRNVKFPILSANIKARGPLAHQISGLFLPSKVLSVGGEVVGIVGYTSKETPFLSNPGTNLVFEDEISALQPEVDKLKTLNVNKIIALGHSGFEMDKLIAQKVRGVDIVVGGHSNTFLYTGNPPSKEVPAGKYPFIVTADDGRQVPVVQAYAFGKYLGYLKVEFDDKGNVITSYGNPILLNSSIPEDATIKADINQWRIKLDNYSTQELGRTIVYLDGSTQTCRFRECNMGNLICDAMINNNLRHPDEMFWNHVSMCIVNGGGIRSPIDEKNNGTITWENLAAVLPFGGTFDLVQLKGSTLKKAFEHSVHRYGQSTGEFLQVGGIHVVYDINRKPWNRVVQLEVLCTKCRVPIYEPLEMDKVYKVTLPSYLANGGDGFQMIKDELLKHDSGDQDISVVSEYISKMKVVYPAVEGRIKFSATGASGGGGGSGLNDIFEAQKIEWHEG
Method: (B) Protein ELISA: Protein-based multipoint ELISA was performed to estimate the affinity of the generated Fabs and IgGs to NT5E. The binding of the Fabs and IgGs to the closed form of NT5E were determined in ELISA buffer (HBST) supplemented with 10 μM zinc chloride and 1 mM ATP while the binding of the same to open form of NT5E were determined in ELISA buffer (HBST) without any cofactors. A fixed concentration of the immobilized target (50 nM) on ELISA plate was incubated with 3-fold serial dilutions of the purified Fabs and IgGs starting from 3 μM and 1 μM respectively for 15 min. The plates were washed and were subsequently incubated with a secondary HRP-conjugated anti-protein L monoclonal antibody (#32420, ThermoFisher, 1:6000 dilution). As with phage ELISA, the plates were again washed, developed with TMB substrate and quenched with 1.0 M HCl, and absorbance (Abs450) was determined. To determine the affinity (EC50), the data were fitted with a non-linear, 4-parameter logistic curve in OriginLab.

Binder | binding result [1] | kon [2] [M⁻¹ s⁻¹] | EC50 [3] [nM]
B1 | no binding (tested: 200 nM) | 140000 | 
B2 |  |  | 1.14
